Test results taken from PMC4126377.
One block for each substance: values may come before it.

Target: α- and β-tropomyosin
Assay: GST pull-down
Conditions: all curves start at 1 at 7.5 µg, read off a plot

response (relative intensity) (sub-panel NEB ex54 (super repeat 9), curve 54m, 15 µg α- and β-tropomyosin, parent: est. 1.25): 1.27
response (relative intensity) (sub-panel NEB ex54 (super repeat 9), curve 54m, 30 µg α- and β-tropomyosin, parent: est. 1.30): 1.36
response (relative intensity) (sub-panel NEB ex54 (super repeat 9), curve 54m, 60 µg α- and β-tropomyosin, parent: est. 1.30): 1.37
Substance: GST-nebulin super repeat 9 (S9), wild type (from UniProt P20929-3) p.Glu2431Lys

response (relative intensity) (sub-panel NEB ex122 (super repeat 18), curve 122m, 15 µg α- and β-tropomyosin, parent: est. 1.07): 1.08
response (relative intensity) (sub-panel NEB ex122 (super repeat 18), curve 122m, 30 µg α- and β-tropomyosin, parent: est. 1.18): 1.19
response (relative intensity) (sub-panel NEB ex122 (super repeat 18), curve 122m, 60 µg α- and β-tropomyosin, parent: est. 1.18): 1.2
Substance: GST-nebulin super repeat 18 (S18), wild type (from UniProt P20929-3) p.Ser6366Ile

response (relative intensity) (sub-panel NEB ex151 (super repeat 22), curve 151m, 15 µg α- and β-tropomyosin, parent: est. 1.28): 1.12
response (relative intensity) (sub-panel NEB ex151 (super repeat 22), curve 151m, 30 µg α- and β-tropomyosin, parent: est. 1.33): 1.17
response (relative intensity) (sub-panel NEB ex151 (super repeat 22), curve 151m, 60 µg α- and β-tropomyosin, parent: est. 1.34): 1.18
Substance: GST-nebulin super repeat 22 (S22), wild type (from UniProt P20929-3) p.Thr7382Pro
